“Also recorded” adds a separate entry of the source. Structures can show the parent of a compound that is named as a salt. Where two headings read alike, the source gives them in different places.
B1: NB84: β2AR-specific nanobody, SEQ ID NO:29; the tested NB84 is assumed to be this one (protein, listed as Lama glama)
VHH: QVQLQESGGGLVQAGGSLRLSCAASGSIFSINAMGWYRQAPGKQRELVAAITSGGSTTYADSVKGRFTVSRDNAKNTVYLQMIRLKPEDTAVYYCHVRDIYSDFLGQYEYDYWGQGTQVTVSS
B2: NB65: β2AR-specific nanobody, SEQ ID NO:5 (protein, listed as Lama glama)
VHH: QVQLQESGGGLVQAGGSLRLSCAASGSIFSINTMGWYRQAPGKQRELVAAIHSGGSTNYADSVRGRFTISRDNAKNTVYLQMNSLKPEDTAVYYCNVKDYGAVLYEYDYWGQGTQVTVSS
B3: NB67: β2AR-specific nanobody, SEQ ID NO:20 (protein, listed as Lama glama)
VHH: QVQLQESGGGLVQAGGSLRLSCAASGTISSFIAMGWYRQSPGKQRELVAGITSGGETNYEDSVKGRFTISRDNAKNTLYLQMNTLKPEDTAVYYCNAQVFADIFNLINYWGQGTQVTVSS
B4: NB72: β2AR-specific nanobody, SEQ ID NO:24; the tested NB72 is assumed to be this one (protein, listed as Lama glama)
VHH: QVQLQESGGGLVQPGGSLRLSCAASGFTFSGYAMNWVRQAPGKGPEWVSAINSGGGSTSYADSVKGRFTISRDNAKNTVYLQMNSLKPEDTAVYYCHARDIYSDFLGQYEYDYWGQGTQVTVSS
B5: NB71: β2AR-specific nanobody, SEQ ID NO:25 (protein, listed as Lama glama)
VHH: QVQLQESGGGLVQPGGSLRLSCAASGFAFSSYELRWYRQAPGKQHELVAGITTGGNTYYADSVKGRFTISRDNAKNTVYLQMSNLRPEDTAVYACNANWDLLSDYWGQGTQVTVSS
B6: NB69: β2AR-specific nanobody, SEQ ID NO:26 (protein, listed as Lama glama)
VHH: QVQLQESGGGLVQPGGSLRLSCAASGSIFSINAMGWYRQAPGKQRDLVASITSGGSTNYADSVKGRFTISRDNAKNTVYLQMNSLKPEDTAVYYCNVQGTGPSSWLFNEYDYWGQGTQVTVSS

Tests used:
[1] = biological target: T1, β2AR (Homo sapiens, UniProt P07550); type: binding
[2] = system: β2AR; experiment: Size exclusion chromatography of nanobody with purified agonist- or inverse agonist-bound β2AR; type: binding, human; details: 20 μM β2AR bound to agonist or inverse agonist, 40 μM nanobody
Description: The mixture was then analyzed by Size Exclusion Chromatography (SEC), which separates protein on the basis of size. Seven of the nanobodies bound to purified β2AR and migrated as a complex on SEC only in the presence of agonist and not an inverse agonist (an example is shown in FIG. 1, Panel a, FIGS. 3A, 3B, and FIG. 4).
Agonist selective nanobodies were identified by size exclusion chromatography following incubation of 20 μM agonist or inverse agonist-(carazolol-) bound β2AR-365N for one hour at RT in the absence or presence of 40 μM nanobody.

[3] = biological target: T1, β2AR; details: agonist competition binding, Sf9 membranes
Description: The IC50 values used for calculations of Ki values were obtained from means of pIC50 values determined by nonlinear regression analysis using Prism (GraphPad Software, San Diego, Calif.) and the s.e. interval from pIC50±s.e.

[4] = biological target: T1, β2AR; experiment: Monobromobimane fluorescence of purified mBBr-labeled β2AR; type: biochemical; parameters: made in house; details: 1 μM nanobody, β2AR bound to full agonist isoproterenol
Text: To investigate the effect of nanobodies on movement of the cytoplasmic domain of TM6 we labeled purified β2AR at C265 with monobromobimane (mBB-β2AR). […] In mBB-β2AR, the addition of agonist together with G protein results in larger fluorescent changes than either agonist or G protein alone. This is compatible with the cooperative interactions observed in agonist competition binding assays (Yao et al. 2009).
Purified β2AR was reacted with 1:1 equivalent of monobromobimane (mBBr, Invitrogen) in 100 mM NaCl, 20 mM HEPES, pH 7.5, 0.1% dodecyl maltoside and incubated overnight on ice in the dark. The fluorophore-labeled receptor was purified right before use by gel filtration on a desalting column equilibrated with the same buffer. […] All experiments were performed at 25° C. […] To determine the effect of nanobodies and ligands, three individual labeled protein samples were incubated with 1 μM nanobody or 10 μM Isoproterenol or both. Emission spectra of the samples were taken after 1 hour incubation.

[5] = ratio of IC50 with irrelevant Nb to IC50 with 500 nM Nb80, 3H-DHA radioligand

Row | Molecule | Potency shift [1, 5] | complex formation with β2AR on SEC [2] | enhancement of the affinity of β2AR for the agonist isoproterenol in the presence of nanobody [3] | other results
1 | CC(CCc1ccc(O)cc1)NCCc1ccc(O)c(O)c1 (centres unmarked) [dobutamine, dobutamine hydrochloride] | 2.3 |  |  | 
2 | CC(Cc1ccc(O)cc1)NCC(O)c1cc(O)cc(O)c1 (centres unmarked) [fenoterol, fenoterol hydrobromide] | 3.7 |  |  | 
3 | CCC(NC(C)C)C(O)c1ccc(O)c2[nH]c(=O)ccc12 (centres unmarked) [procaterol, procaterol hydrochloride] | 2.3 |  |  | 
4 | CC(NCCc1ccc(O)cc1)C(O)c1ccc(O)cc1 (centres unmarked) [ritodrine, ritodrine hydrochloride] | 2.7 |  |  | 
5 | metaproterenol hemisulfate salt |  |  |  | Potency shift [1]: 2.9
6 | B1 |  | elutes at an earlier volume | two- to thirty-fold | nanobody-induced change of mBBr fluorescence ([4]; listed as 84): Comparable results; also recorded: stabilize a more active state of the β2AR
7 | B2 |  | elutes at an earlier volume | two- to thirty-fold | nanobody-induced change of mBBr fluorescence ([4]; listed as 65): Comparable results; also recorded: stabilize a more active state of the β2AR
8 | B3 |  | elutes at an earlier volume | two- to thirty-fold | nanobody-induced change of mBBr fluorescence ([4]; listed as 67): Comparable results; also recorded: stabilize a more active state of the β2AR
9 | B4 |  | elutes at an earlier volume | two- to thirty-fold | nanobody-induced change of mBBr fluorescence ([4]; listed as 72): Comparable results; also recorded: stabilize a more active state of the β2AR
10 | B5 |  | elutes at an earlier volume | two- to thirty-fold | nanobody-induced change of mBBr fluorescence ([4]; listed as 71): Comparable results; also recorded: stabilize a more active state of the β2AR
11 | B6 |  | elutes at an earlier volume | two- to thirty-fold | nanobody-induced change of mBBr fluorescence ([4]; listed as 69): Comparable results; also recorded: stabilize a more active state of the β2AR

Source: US11162953B2, “Protein binding domains stabilizing functional conformational states of GPCRS and uses thereof” (priority 2010, dated 2021)
